The values below are quoted from earlier work in paper PMC3433420.

Read-outs that look alike come from different tables or passages of the source.

What all share (conditions): cited from earlier work
In data set [1] the target is ABL2 (Homo sapiens) (UniProt P42684).
Data set [2] has the same target. This is another data set of the same source.
For data set [3], the target named is PIK3R3-NC (Homo sapiens) (UniProt Q92569).
Data set [4] deals with ABL1 (Homo sapiens) (UniProt P00519).
In data set [5] the target is NCK2 (Homo sapiens) (UniProt O43639).
Sequence of NCK2 (Homo sapiens) (O43639 280-380): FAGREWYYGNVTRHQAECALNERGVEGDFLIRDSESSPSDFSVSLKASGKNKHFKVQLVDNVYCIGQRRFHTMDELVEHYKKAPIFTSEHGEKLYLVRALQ
Data set [6] has as its target SHC1-PTB (Homo sapiens) (UniProt P29353).
Data set [7] shares this target. This is another data set of the same source.

Sequence of SHC1-PTB (Homo sapiens) (P29353 483-583): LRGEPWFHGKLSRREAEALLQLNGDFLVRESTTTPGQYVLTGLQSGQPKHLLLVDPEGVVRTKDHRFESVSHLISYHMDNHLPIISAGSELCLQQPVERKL
Sequence of ABL2 (Homo sapiens) (P42684 168-268): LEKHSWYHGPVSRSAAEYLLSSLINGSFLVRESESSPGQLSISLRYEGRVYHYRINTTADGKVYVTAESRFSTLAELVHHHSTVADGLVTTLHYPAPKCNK
Sequence of ABL1 (Homo sapiens) (P00519 122-222): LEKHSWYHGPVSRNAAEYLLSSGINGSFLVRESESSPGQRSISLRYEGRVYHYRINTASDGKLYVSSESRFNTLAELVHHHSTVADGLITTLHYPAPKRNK

On to …pYHNASNGPd, for which the apparent Kd (screen) was 0.035 µM in data set [1]; 0.755 µM in data set [2]; 2 µM in data set [3]; 1.82 µM in data set [4]; 2 µM in data set [5]; 0.717 µM in data set [6]. Further, the apparent Kd (screen) in data set [7] is 0.277 µM.
